Results taken from paper PMC2150902 (The Journal of Cell Biology, 2001).

Molecular target: the molecule itself
Experiment: dynamic light scattering

B1: Δ9-Sar1A (hamster Sar1 lacking residues 2–9), GDP-bound form (domain or fragment)
chain: not shown
stoichiometry N: 2
